Experimental data as given in patent CN114957460A (dated 2022).

What was measured:
Assay in all cases: cell-based or functional assay
双组分毒素HlgAB = 双组分毒素HlgAB (金黄色葡萄球菌 (Staphylococcus aureus), UniProt P0A074 30-309; P0A077 26-325)
双组分毒素HlgA+LukD = 双组分毒素HlgA+LukD (金黄色葡萄球菌 (Staphylococcus aureus), UniProt P0A074 30-309; O54082 27-327)
双组分毒素HlgA+LukF = 双组分毒素HlgA+LukF (金黄色葡萄球菌 (Staphylococcus aureus), UniProt P0A074 30-309; P31715 26-323)

Measured: 兔红细胞溶血中和 (上清OD405)

B1: 鼠源抗原结合蛋白17C7 (antibody, V domains shown)
VH: EVQLQQSGAELVRSGASVKLSCTASGFNIKDYYMHWVKQRPEQGLEWIGWIDPENDIGEYAPKFQGKATMTADTSSNTAYLQLSSLTSEDTAVYFCNALWGGVLDYWGQGTSVTVSA
VL: DVVMTQTPLSLPVSLGDQASISCRSSQSLVNSNGNTYLHWYLQKPGQSPNLLIYRVSNRFSGVPDRFSGSGSGTDFTLKISRVEAEDLGVYFCSQSTHVPYTFGGGTKLEIKR
4 µg: 双组分毒素HlgAB | 双组分毒素HlgA+LukD | 双组分毒素HlgA+LukF
